Experimental data taken from patent publication US20250262210A1 (TRUSTEES OF COLUMBIA UNIVERSITY IN THE CITY OF NEW YORK, published 2025).

T1: LZTR1 R810W-FLAG (human, UniProt Q8N653 1-840)
T1 construct: Stably expressed in U87 cells by lentivirus; also called LZTR1-FLAG-R810W; LZTR1 RW; not shown: FLAG tag
T1 sequence (looked up): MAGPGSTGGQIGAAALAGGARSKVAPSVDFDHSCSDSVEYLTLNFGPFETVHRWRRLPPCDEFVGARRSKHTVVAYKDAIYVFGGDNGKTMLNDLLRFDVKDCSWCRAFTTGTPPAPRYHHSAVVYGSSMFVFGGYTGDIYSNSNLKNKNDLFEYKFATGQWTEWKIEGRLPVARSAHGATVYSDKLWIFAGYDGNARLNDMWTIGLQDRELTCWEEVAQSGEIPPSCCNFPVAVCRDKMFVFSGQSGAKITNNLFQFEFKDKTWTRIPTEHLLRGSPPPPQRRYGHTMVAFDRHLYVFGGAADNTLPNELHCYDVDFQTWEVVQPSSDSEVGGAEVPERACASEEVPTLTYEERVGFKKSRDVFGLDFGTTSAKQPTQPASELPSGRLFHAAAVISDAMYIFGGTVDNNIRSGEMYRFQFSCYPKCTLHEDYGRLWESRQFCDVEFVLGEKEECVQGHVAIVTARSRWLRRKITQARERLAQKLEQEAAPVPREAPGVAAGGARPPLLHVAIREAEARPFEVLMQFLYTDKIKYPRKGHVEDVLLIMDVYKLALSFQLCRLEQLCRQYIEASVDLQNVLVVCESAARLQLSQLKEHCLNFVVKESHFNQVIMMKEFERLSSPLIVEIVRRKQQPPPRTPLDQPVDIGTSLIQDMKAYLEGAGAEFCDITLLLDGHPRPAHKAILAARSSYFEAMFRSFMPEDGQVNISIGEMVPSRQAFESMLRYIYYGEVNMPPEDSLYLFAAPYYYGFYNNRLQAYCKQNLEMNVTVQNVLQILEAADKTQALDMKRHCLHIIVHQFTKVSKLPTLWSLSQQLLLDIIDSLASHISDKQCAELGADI

T2: LZTR1-FLAG (human, UniProt Q8N653 1-840)
T2 construct: Expressed in HEK 293T, HeLa or U87 cells; used as cell lysate; also called LZTR1 wild type-FLAG; LZTR1 WT; not shown: FLAG tag at the C-terminus
T2 sequence (looked up): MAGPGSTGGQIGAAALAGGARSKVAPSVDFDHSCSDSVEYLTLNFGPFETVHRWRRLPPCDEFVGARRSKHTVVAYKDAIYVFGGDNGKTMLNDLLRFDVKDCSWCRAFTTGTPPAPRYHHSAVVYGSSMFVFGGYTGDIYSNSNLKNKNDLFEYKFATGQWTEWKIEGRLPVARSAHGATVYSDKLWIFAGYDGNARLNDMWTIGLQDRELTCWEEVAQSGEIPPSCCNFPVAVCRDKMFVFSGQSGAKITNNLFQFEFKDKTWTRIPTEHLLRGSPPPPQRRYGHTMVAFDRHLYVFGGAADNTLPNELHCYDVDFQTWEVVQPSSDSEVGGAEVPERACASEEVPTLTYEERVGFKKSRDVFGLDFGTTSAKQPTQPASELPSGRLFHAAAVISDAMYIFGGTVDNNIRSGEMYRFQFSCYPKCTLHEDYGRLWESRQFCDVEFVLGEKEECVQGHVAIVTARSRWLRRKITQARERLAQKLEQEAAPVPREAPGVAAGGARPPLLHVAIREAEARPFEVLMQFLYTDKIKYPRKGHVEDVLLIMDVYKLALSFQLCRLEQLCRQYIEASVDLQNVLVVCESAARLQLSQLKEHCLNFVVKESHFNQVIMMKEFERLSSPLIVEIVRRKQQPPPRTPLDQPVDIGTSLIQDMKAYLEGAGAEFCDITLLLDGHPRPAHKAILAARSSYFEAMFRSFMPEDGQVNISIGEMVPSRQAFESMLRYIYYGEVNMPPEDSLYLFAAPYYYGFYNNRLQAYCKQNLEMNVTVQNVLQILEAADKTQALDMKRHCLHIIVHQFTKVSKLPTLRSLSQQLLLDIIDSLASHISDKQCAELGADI


Key:
[1] = target: T1, LZTR1 R810W-FLAG; assay: IP/MS, LZTR1 R810W-FLAG, U87
Procedure, shortened: (§1)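 Extracted peptides in 3% acetonitrile/0.1% formic acid ran on a 50 cm C18 column into an Orbitrap Fusion, with MaxQuant identification and spectral counting.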

[2] = target: T2, LZTR1-FLAG; assay: IP/MS, LZTR1 wild type-FLAG, U87
Procedure, shortened: as §1

| Binder | binding result [1] | binding result [2] |
| --- | --- | --- |
| VPS16 (other, human, UniProt Q9H269 1-839, looked up) MDCYTANWNPLGDSAFYRKYELYSMDWDLKEELRDCLVAAAPYGGPIALLRNPWRKEKAASVRPVLDIYSASGMPLASLLWKSGPVVSLGWSAEEELLCVQEDGAVLVYGLHGDFRRHFSMGNEVLQNRVLDARIFHTEFGSGVAILTGAHRFTLSANVGDLKLRRMPEVPGLQSAPSCWTVLCQDRVAHILLAVGPDLYLLDHAACSAVTPPGLAPGVSSFLQMAVSFTYRHLALFTDTGYIWMGTASLKEKLCEFNCNIRAPPKQMVWCSRPRSKERAVVVAWERRLMVVGDAPESIQFVLDEDSYLVPELDGVRIFSRSTHEFLHEVPAASEEIFKIASMAPGALLLEAQKEYEKESQKADEYLREIQELGQLTQAVQQCIEAAGHEHQPDMQKSLLRAASFGKCFLDRFPPDSFVHMCQDLRVLNAVRDYHIGIPLTYSQYKQLTIQVLLDRLVLRRLYPLAIQICEYLRLPEVQGVSRILAHWACYKVQQKDVSDEDVARAINQKLGDTPGVSYSDIAARAYGCGRTELAIKLLEYEPRSGEQVPLLLKMKRSKLALSKAIESGDTDLVFTVLLHLKNELNRGDFFMTLRNQPMALSLYRQFCKHQELETLKDLYNQDDNHQELGSFHIRASYAAEERIEGRVAALQTAADAFYKAKNEFAAKATEDQMRLLRLQRRLEDELGGQFLDLSLHDTVTTLILGGHNKRAEQLARDFRIPDKRLWWLKLTALADLEDWEELEKFSKSKKSPIGYLPFVEICMKQHNKYEAKKYASRVGPEQKVKALLLVGDVAQAADVAIEHRNEAELSLVLSHCTGATDGATADKIQRARAQAQKK | binds | binds |
| VPS51 (other, human, UniProt Q9UID3 2-782, looked up) AAAAAAGPSPGSGPGDSPEGPEGEAPERRRKAHGMLKLYYGLSEGEAAGRPAGPDPLDPTDLNGAHFDPEVYLDKLRRECPLAQLMDSETDMVRQIRALDSDMQTLVYENYNKFISATDTIRKMKNDFRKMEDEMDRLATNMAVITDFSARISATLQDRHERITKLAGVHALLRKLQFLFELPSRLTKCVELGAYGQAVRYQGRAQAVLQQYQHLPSFRAIQDDCQVITARLAQQLRQRFREGGSGAPEQAECVELLLALGEPAEELCEEFLAHARGRLEKELRNLEAELGPSPPAPDVLEFTDHGGSGFVGGLCQVAAAYQELFAAQGPAGAEKLAAFARQLGSRYFALVERRLAQEQGGGDNSLLVRALDRFHRRLRAPGALLAAAGLADAATEIVERVARERLGHHLQGLRAAFLGCLTDVRQALAAPRVAGKEGPGLAELLANVASSILSHIKASLAAVHLFTAKEVSFSNKPYFRGEFCSQGVREGLIVGFVHSMCQTAQSFCDSPGEKGGATPPALLLLLSRLCLDYETATISYILTLTDEQFLVQDQFPVTPVSTLCAEARETARRLLTHYVKVQGLVISQMLRKSVETRDWLSTLEPRNVRAVMKRVVEDTTAIDVQVGLLYEEGVRKAQSSDSSKRTFSVYSSSRQQGRYAPSYTPSAPMDTNLLSNIQKLFSERIDVFSPVEFNKVSVLTGIIKISLKTLLECVRLRTFGRFGLQQVQVDCHFLQLYLWRFVADEELVHLLLDEVVASAALRCPDPVPMEPSVVEVICERG | binds | binds |

The remaining lines, values ahead:

| binding result [1] | binding result [2] | Binder |
| --- | --- | --- |
| binds | binds | ZC3HC1 (other, human, UniProt Q86WB0 2-502, looked up) AAPCEGQAFAVGVEKNWGAVVRSPEGTPQKIRQLIDEGIAPEEGGVDAKDTSATSQSVNGSPQAEQPSLESTSKEAFFSRVETFSSLKWAGKPFELSPLVCAKYGWVTVECDMLKCSSCQAFLCASLQPAFDFDRYKQRCAELKKALCTAHEKFCFWPDSPSPDRFGMLPLDEPAILVSEFLDRFQSLCHLDLQLPSLRPEDLKTMCLTEDKISLLLHLLEDELDHRTDERKTTIKLGSDIQVHVTACILSVCGWACSSSLESMQLSLITCSQCMRKVGLWGFQQIESSMTDLDASFGLTSSPIPGLEGRPERLPLVPESPRRMMTRSQDATFSPGSEQAEKSPGPIVSRTRSWDSSSPVDRPEPEAASPTTRTRPVTRSMGTGDTPGLEVPSSPLRKAKRARLCSSSSSDTSSRSFFDPTSQHRDWCPWVNITLGKESRENGGTEPDASAPAEPGWKAVLTILLAHKQSSQPAETDSMSLSEKSRKVFRIFRQWESLCSC |
| binds | binds | YME1L1 (other, human, UniProt Q96TA2 1-773, looked up) MFSLSSTVQPQVTVPLSHLINAFHTPKNTSVSLSGVSVSQNQHRDVVPEHEAPSSECMFSDFLTKLNIVSIGKGKIFEGYRSMFMEPAKRMKKSLDTTDNWHIRPEPFSLSIPPSLNLRDLGLSELKIGQIDQLVENLLPGFCKGKNISSHWHTSHVSAQSFFENKYGNLDIFSTLRSSCLYRHHSRALQSICSDLQYWPVFIQSRGFKTLKSRTRRLQSTSERLAETQNIAPSFVKGFLLRDRGSDVESLDKLMKTKNIPEAHQDAFKTGFAEGFLKAQALTQKTNDSLRRTRLILFVLLLFGIYGLLKNPFLSVRFRTTTGLDSAVDPVQMKNVTFEHVKGVEEAKQELQEVVEFLKNPQKFTILGGKLPKGILLVGPPGTGKTLLARAVAGEADVPFYYASGSEFDEMFVGVGASRIRNLFREAKANAPCVIFIDELDSVGGKRIESPMHPYSRQTINQLLAEMDGFKPNEGVIIIGATNFPEALDNALIRPGRFDMQVTVPRPDVKGRTEILKWYLNKIKFDQSVDPEIIARGTVGFSGAELENLVNQAALKAAVDGKEMVTMKELEFSKDKILMGPERRSVEIDNKNKTITAYHESGHAIIAYYTKDAMPINKATIMPRGPTLGHVSLLPENDRWNETRAQLLAQMDVSMGGRVAEELIFGTDHITTGASSDFDNATKIAKRMVTKFGMSEKLGVMTYSDTGKLSPETQSAIEQEIRILLRDSYERAKHILKTHAKEHKNLAEALLTYETLDAKEIQIVLEGKKLEVR |
